Biological target: T1, Cdk2-cyclin E (Homo sapiens, UniProt P24941)
T1 construct: host or cells: baculovirus expression system
Assay: In vitro kinase assay with Cdk2-cyclin E
Type: biochemical
Settings: recombinant protein as substrate, control experiment, autoradiography
Description: FIG. 1B. In vitro kinase assay. Wild type (WT) survivin, survivin(T34A) (T34A), or control (H1) were incubated with baculovirus-expressed p34^cdc2-cyclin B1 or cdk2-cyclin E in kinase buffer plus 10 μCi γ-^32P-ATP for 30 min at 30° C. Samples were separated by SDS gel electrophoresis and radioactive bands were visualized by autoradiography. Equal protein loading was confirmed by Coomassie blue staining of the gel.
Transfection experiments. For transient transfection, HeLa cells in C-6 tissue culture plates (Costar, Cambridge, Mass.) at ˜60-70% confluency, were incubated in 1 ml of serum-free OptiMEM medium (Life Technologies, Gaithersburg, Md.) for 20 min, and transfected with 2.5 μg of the various plasmid cDNAs plus 9 μl Lipofectamine (Life Technologies). After a 5 h incubation at 37° C., the mixture was aspirated and substituted with complete growth medium for 48-72 h. To generate stable YUSAC-2 transfectants, a survivin(T34A) cDNA was inserted into the HindIII-SpeI sites of the pTet-splice vector (Dr. D. Schatz, Yale University School of Medicine), downstream of the regulatory sequences of the Tet-resistance operon (TetO). […] Gated GFP-expressing cells were analyzed for DNA content by flow cytometry on a FACSort (Becton Dickinson, San Jose, Calif.) using a Cell Quest software. […]

survivin(T34A): dominant-negative, non-phosphorylatable survivin mutant with Thr34→Ala substitution, expressed from transfected cDNA (also HA- or GFP-tagged)
phosphorylation by Cdk2-cyclin E: did not phosphorylate

Source: patent publication US7553821B2, “Methods for selectively modulating survivin apoptosis pathways” (Yale University, priority 2000, dated 2009)
